Assay results from the DeepSol protein solubility set.

Experiment: soluble on expression in E. coli; label from the status in PepcDB or PDB records

Row | Sequence | soluble on expression in E. coli
1 | MQLDIDGLKVLFPYDYVYPEQVLYMKEVKKALDARGHGLLEMPSGTGKTVSLLSLVLAYMISYPDKLDKLVYCSRTIPEIEKCVEEMKVLYDYWEKETGQPVAKITVAMSARKNLCVNEPVAALRFGNTVDSACQKLTASSARQKRAEDPTLEACDYFENFEAKSVPMQNGVWNLVKICEFWGTDKIEIFREKIQEI | not soluble
2 | MGSDKIHHHHHHMGFDVEALKAALEAHGRVIRVVVAEVKGSAPREVGAAMLVWDGGQSGTIGGGTLEFEAADAARRQDAPYRLSTHALGPDLGQCCGGAVTLLSEVYTEVNIAQLTGQVISRAVAPGPEPLAVSRILNHARAQGLAPAPQLIAGWMIEPVACATRPLWIWGAGHVGRALVEVLAPLPDYAITWVDVMRSKYPQEIPASVTALPAQEPGRLVPHAPTEAYHLILTYSHQLDLALCHRLLEHGFDFAGLIGSKTKWARFRARLAALGHRPEQIARLTCPIGMPELGKHPHAIAIGVAAELMALSQRLDLKKEHSA | not soluble
3 | MGSDKIHHHHHHMRKSIVLSTAMALAAGTAAYAAEISDGKVKIGILNDQSGVYANFGGKYSYEAAKMAVEDFGGKVLGAPVEVVTADHQNKADVASNIARQWYDTEQVDSIMELTSSSVGLAVQALSKDKKKITVNTGAATTELTGKQCSPYGFHWAYDTYSLAVGTGGALVKQGGDSWFFLTADYAFGYSLEENTSNFVKANGGKVLGSVRHPLATTDYSSFLLQAQSSGAKVIGLANAGLDTSNAIKQASEFGIVAGGQRLAALLFTLAEVHGLGLEAAQGLTLTEGFYWDRDDESRKFGERFKERTGAMPNMIHTGTYSAVLHYLKAIEKAGTDDADAVAKAMKEMPVNDVFAKDGHVAANGRMIHDMYLMEVKKPDESKQPWDYYKVLATIPGKEAFMDPTKSGCPLVKQ | not soluble
4 | MGSDKIHHHHHHEDFLQKDPPSSPSQSVFWQKKSDFESALAGTYSVMYSGVFSQIMPCLDGLTDNAIVQHSEGTYGWAKTIAQGDLTPNQGGFVTDIYGNCYKGIARVHILMEQLDQYTGSDISADEKKFMLAQCKALRGYFYSWLYQCYKEVPVVTQSLDLNTMYQPKATRAEVLNRVMTDYDEAISELPDKLYSDSQTSGRFTVSAVKALKARILLFDAYDSNGKAISSKMEEVLTLLQSIKGYSLAARVRDNFISEKQLASPEIMFSVRFLRPNLTHSMDLYYGAWAVLDPTRNMVDAFECTDGKPWGESPLTVRPDESILYGNDDALKKAERAKMFMNRDRRLYESVNHSMMANFVDDGFKDEEVQVNESNNKGPTGFSALKYVQPTDVTPGYSTVSDADIVVLRYAHVLLMIAEAENEAHGATTTALNAINEVRTRSGQPAIEAGISQDDLRERIRNEWRIETCFEGLRYFQLKRWKLMDKRVNGVEDPAYPGYIKVYKPAFEFFPIPQSEIDKAGGVLKQDPAYE | not soluble
5 | AVIGMNEAASALTPSRVSSLPDTQRAAWQEYLARSEAQLSRDKASLAAELAPGQPLPPPPAEGKGADTMPLDKPAAWYTSKAARHVADVIVSFQTPAGGWGKNQPRDGALRLPGQHYTGENVAKVKSGSNDLDAARDRDWHYVGTIDNDATVTEIRFLAQVVSQLAPEEAAPYRDAALKGIEYLLASQFPNGGWPQVWPLEGGYHDAITYNDDALVHVAELLSDIAAGRDGFGFVPPAIRTRALEATNAAIHCIVETQVVQDGKRLGWGQQHDALTLRPTSARNFEPAALSSTESARILLFLMEIEAPSDAVKQAIRGGVAWLNTSVIRDRAWVKSDQGYQLVTEQGAKPLWSRFYSLDGNKPVFGDRDKTIHDDVMGISQERRTGYAWYTTSPQKALSAFTKWEKRS | soluble
6 | MEGLNVLVTGSTCGLGLHTAKILFKKGANVILTCRDEIRGRHAVESLLSGVSQEQSQKEAERIHLFTLDVTNYNSICNFTDEISRMFKYLHVIINNAGIMGMPFELSVDGIEMHFATNVFGHYVVVERLLPLLLKTDRPDFKSRVIVVSSGLYRNAEAIPQVSKLLGQKTYDYSPKQAYAFSKLANCLYTGALSKMLEPHNVGVYCVRPGFVNGTELGRETHWILRALAAPIIWFIAKTLEQGCETIVYLAETSGNQLKNGSMYYERKEEAYNEMVEVTSIRQVWAILRHLEDTVWKRNTQMTDEQRNHGEMVRELLNESLIV | not soluble
7 | SEAVRPDSCESGPAAPRAEERPAPEARVHFRVTRFIMEAGVKLGMQSIPIATACTIYHKFFCEINLDAYDLYLVAMSSIYLAGKVEEQHLRTRDIINVSHRYFNPGSEPLELDSRFWELRDSIVQCELLMLRVLRFQVSFQHPHKYLLHYLISLKNWLNRYSWQRTPISVTAWALLRDSYHGGLCLRFQAQHLAVAVLYLALQVYGVEVPAEGEAEKPWWQVFSDDLTKPIIDNIVSDLIQIYTMDTEIP | soluble
8 | MSLAKAYDHLFKLLLIGDSGVGKTCLIIRFAEDNFNNTYISTIGIDFKIRTVDIEGKKIKLQVWDTAGQERFKTITTAYYRGAMGIILVYDITDEKSFENIQNWMKSIKENASAGVERLLLGNKCDMEAKRKVQKEQADKLAREHGIRFFETSAKSSMNVDEAFSSLARDILLKSGGRRSGNEGHHHHHH | soluble
9 | MGSDKIHHHHHHGQYIKKETVNSQVYAVIYAEGLAGSAQWVSGFKMMKNDATIRHQVSRGNGGNPIVNDRIPMRFIIAPTDVANVTWMQAEGAGDGNGNLNADFRSTAATGCRSYKIAGDPNRKWRVPTQRELQLMWLFREPVGVIYPAAQMENVSSKIYWAATEEDAANAWYFDFKQGVPQCSWQLKTTSSNVRCVSDY | not soluble
10 | MDDILSAALAESGLDFLCQQSSPTPSTSGSIHDDAGQSFSNNTHTPSVSQFFDETSNDSHSSSAYYTPMATPFVSTEDGGVPTSFFGMDEEDGGCTIMTTAGTSGSNNIDGIEDAGGGMYYPHVKVIPRKHTAPTVNQSEPSTPTVTIVPKKEDPLFETNTADSPTPSGDTSTTASYEGNDGLEDQETTSDRQNPMFVQTARSTDFATKKNQMAEQAHFLRFSVFWQKSGRLDTPSTSATVSPHITSSLTQRSHTSSPASSASEGTVVPPRKKGLPITTGSIVKRTVQTKDGLQTQYLKAFVNENGEKIYKLLSPVAASAVARGTLPPGMGRGGSTIGRGGTMVNKNGERLMVVKNHVGPNGQMLVKRMVSPAGTRIVANGGQGRGQPIYRGT | not soluble
11 | MGSDKIHHHHHHMLGVCYYPEHWGTEKVEEDFRRMKELGIEYVRIGEFAWSRIESERGKFNWDWLDKTLELAEKMGLKIVLGTPTATPPKWLIDEHPEILPVDKDGRVKNFGSRRHYCFSSPVYREEVKRIVTIIVKRYGKHPAVAGWQTDNEYGCHDTVRCYCPRCKKAFQKWLERKYEGDIKKLNEAWGTVFWSQEYRSFDEIELPNLTPADPNPSHLLDYYRLASDQVVEFNKLQVEIIREYSPGRFITHNFMSGFTDFDHYKLSKDLDFATWDNYPLGHTLVFLRMKGETKNPFDRVGHPDIISFSHDLYRGVGRGRFWVMEQQAGPVNWAPYNLWPAKGAVRLWTWQAFAHGAEVVSYFRWRQAPFAQEQMHSGLLAPDSAPYPGYHEVKQVFEELKNIDINEPVESEVALVFDYETAWVFSIQPHGEGVNYIDLVFRFYSALRRLGLNVDIVPPGSSLDGYKMIVVPSLAIVKEEVLDTFKKYDGLLVLGPRSGSKTETFQIPPEMPPGLLKEIIPVEVRQVESLGDNVETLVWNGKEYPVSIWREDVDPTITEVIARFKDGFGAIFRKENVFYLAFWPNGDFLVDFFEALSKESGIETKRMPEGVRIQRRGEYVFSFNFTSEEVDLEIPTKVQIVLGDQKIPPYGLLIWKENER | not soluble
12 | ELSGDDQGDEEEDDHAYEGVPNGGWHTSSLSLSLPSTIAAPHPMDGPPGGSTPVTPVIKAGWLDKNPPQGSYIYQKRWVRLDTDHLRYFDSNKDAYSKRFISVACISHVAAIGDQKFEVITNNRTFAFRAESDVERKEWMQALQQAMAEQRARARLSSAYLLGVPGSEQPDRAGSLELRGFKNKLYVAVVGDKVQLYKNLEEYHLGIGITFIDMSVGNVKEVDRRSFDLTTPYRIFSFSADSELEKEQWLEAMQGAIAEALSTSEVAERIWAAAPNRFCADCGAPQPDWASINLCVVICKRCAGEHRGLGAGVSKVRSLKMDRKVWTETLIELFLQLGNGAGNRFWAANVPPSEALQPSSSPSTRRCHLEAKYREGKYRRYHPLFGNQEELDKALCAAVTTTDLAETQALLGCGAGINCFSGDPEAPTPLALAEQAGQTLQMEFLRNNRTTEVPRLDSMKPLEKHYSVVLPTVSHSGFLYKTASAGKLLQDRRAREEFSRRWCVLGDGVLSYFENERAVTPNGEIRASEIVCLAVPPPDTHGFEHTFEVYTEGERLYLFGLESAEQAHEWVKCIAKAFVPPLAEDLLARDFERLGRLPYKAGLSLQRAQEGWFSLSGSELRAVFPEGPCEEPLQLRKLQELSIQGDSENQVLVLVERRRTLYIQGERRLDFMGWLGAIQKAAASMGDTLSEQQLGDSDIPVIVYRCVDYITQCGLTSEGIYRKCGQTSKTQRLLESLRQDARSVHLKEGEQHVDDVSSALKRFLRDLPDGLFTRAQRLTWLEASEIEDEEEKVSRYRELLVRLPPVNRATVKALISHLYCVQCFSDTNQMNVHNLAIVFGPTLFQTDGQDYKAGRVVEDLINHYVVVFSVDEEELRKQREEITAIVKMRVAGTASGTQHAGDFICTVYLEEKKAETEQHIKVPASMTAEELTLEILDRRNVGIREKDYWTCFEVNEREEAERPLHFAEKVLPILHGLGTDSHLVVKKHQAMEAMLLYLASRVGDTKHGMMKFREDRSLLGLGLPSGGFHDRYFILNSSCLRLYKEVRSQRPWSGAPETSHRPEKEWPIKSLKVYLGVKKKLRPPTCWGFTVVHETEKHEKQQWYLCCDTQMELREWFATFLFVQHDGLVWPSEPSRVSRAVPEVRLGSVSLIPLRGSENEMRRSVAAFTADPLSLLRNV | soluble
13 | MENPLQKARILVNQLEKYLDHYAKEYDVEHLAGPQGHLVMYLYKHPDKDMSIKAVEEILHISKSVASNLVKRMEKNGFIAIVPSKTDKRVKYLYLTHLGKKKATQFEIFLEKLHSTMLAGITKEEIRTTKKVIRTLAKNMAMENLD | soluble
14 | VTTSSDPSSPVPQEDLDAVAAQLGREPRGVLEIAYRSPDGTPGVVKTAPKLPDGTPFPTLYYLTDPRLTAEASRQESAGVMREMTERLGQDPELAAAYLRAHESYLAERDAIEPLGTDFTGGGMPERVKCLHVLMAHSLAKGPGVNPLGDESVALAASAAGGKLRGTAIPADWPGIDDVESPEQ | not soluble
15 | MAHHHHHHMEQQVIAVHYQRMEEWLSDRKAVLGKKHKKEFFRLMELAPKLEQLVRYEIPAQHKQNKRLSGLLDDAYGSIEDAAKARKNLEERQKRFFQEYGLVESQGAEEEDLEAVIEAKIASSTTSLNEALREFGRSPHLESFREAYVRAAKMYSMGMYDDNVFSLHLPWLDRVYQERFYKSKVDIHHHEQHQKQRAGERDQVAVKASTGPCNIDWGDEDTVDLVDVGETVEIKWDEEALEVAVEGAVRNCSENNKRMDDGCEEKPTDTVKGIFTIDVSNAAHRKNILTELQAFACFASERSSMDDESLAEPAAAVEVLVKKLTASTEAVFVRMKTTPTLRFSFMEEVRRLQRGIAAASMRKSNSQARVHQIQEEIERLGPQLDALLIAAGNCRDECLAELLKMFPGRTVTIVGDINKYL | not soluble
16 | MRTIEFQAKQLLMEKLDKNLLDHAKSLTDGNGPQIVDVYGLQQLAEVHCYLKTTHQFDPAEVEALLQFADPLEAACHCWEMNTHEYSFPICDLLRETRARELFELAKPEPPAKLSVREQLRAAVKEARQNLAPEERTKGGEAR | not soluble
